From US10561709B2, “Methods and compositions of neuregulins for preventing, treating or delaying preserved ejection fraction cardiac failure” (Zensun (Shanghai) Science & Technology, Co., Ltd., priority 2014, dated 2020) come the findings set out here.

Test [1] deals with SHR hypertensive rats with heart failure. Briefly: Hemodynamic measurement in hypertensive heart failure rats. The settings on record: captopril 10 mg/kg intragastric 2 times a day; for MAP / −dp/dt: hypertensive heart failure rats, after 3 treatment cycles, rhNRG 6.5 ug/kg i.v. once a day 5 days on/2 days off. It is filed as in vivo, rat. As for the experimental part:
(§1) The study is on the therapeutic effect of recombinant human neuregulin (rhNRG) in SHR hypertensive rats with heart failure. Methods: SHR hypertensive rat strains, normal feeding, monitoring changes of cardiac function during feeding. […] Hypertensive heart failure rats were randomly divided into negative control group, NRG treatment group and captopril treatment group. rhNRG was administered continuously for 5 days, withdrawing for 2 days in a treatment cycle, NRG group received 3 treatment cycles. At the end of the second and third treatment cycle, each group of rats was examined by echocardiography to determine the cardiac function changes. After the third treatment cycle, hemodynamics of the rats were detected.
(§2) The SHR hypertensive rat strains, normal feeding, and monitoring the cardiac function changes during the feeding.
After the model was successfully established, the rats were randomly divided into negative control group, NRG treatment group and captopril treatment group. RhNRG was administered intravenously, with a dose of 6.5 ug/kg, once a day, 5 days of continuous administration and 2 days of drug withdraw period as a treatment cycle. A total of 3 treatment cycles were administered. At the same time, the NRG group was given drinking water by intragastric administration two times a day. Captopril was administrated 10 mg/kg by intragastric administration, 2 times a day, continuous administration. NRG excipient was administrated by tail vein injection for 3 treatment cycles. The negative control group were given drinking water by intragastric administration and given NRG excipients by tail vein injection.
At the end of the third treatment cycle, the rats were anesthetized with 3% pentobarbital by intraperitoneal injection. Median incision was made in the neck, the left common carotid artery was isolated and intubated, and the arterial and left ventricular hemodynamic parameters were measured.

For test [2], the system named is patients with heart failure with preserved ejection fraction. The test can be described thus: Mitral valve flow spectrum of two-dimensional echocardiography, preliminary clinical trial. The class given is in vivo, human. How it is done:
To evaluate the effect of recombinant human neuregulin on cardiac function of patients with heart failure with preserved ejection fraction, the preliminary clinical trial was carried out in the Sixth People's Hospital Affiliated to Shanghai Jiao Tong University, which comprises 2 patients in the placebo group and 2 patients in the experiment group.
1.1 left ventricular ejection fraction (LVEF) ≥50% (two-dimensional echocardiography diagnosis);
1.2 New York heart function (NYHA) II or III level;
4. Data collection: Mitral valve flow spectrum of two-dimensional echocardiography was detected during the screening period, 11-13 d and 30 d.

In test [3] the test system is SHR hypertensive rats with heart failure. Briefly: Echocardiography examination in hypertensive heart failure rats. The class given is in vivo, rat. The settings on record: rhNRG 6.5 ug/kg, after 2 cycles or 3 cycles of treatment. As for the experimental part: as §1, §2
After the model was successfully established, the rats were randomly divided into negative control group, NRG treatment group and captopril treatment group. RhNRG was administered intravenously, with a dose of 6.5 ug/kg, once a day, 5 days of continuous administration and 2 days of drug withdraw period as a treatment cycle. A total of 3 treatment cycles were administered. At the same time, the NRG group was given drinking water by intragastric administration two times a day. […]

Where [4] appears, read: patient 8003, 0.3 ug/kg/day i.v. drip 10 hours a day for 10 days, 11-13 d.
Setting [5] is: patient 8003, 0.3 ug/kg/day i.v. drip 10 hours a day for 10 days, 30 d.
[6] abbreviates: patient 8003, 0.3 ug/kg/day i.v. drip 10 hours a day for 10 days, screening period (before treatment).
The mark [7] stands for this setting: patient 8004, 0.3 ug/kg/day i.v. drip 10 hours a day for 10 days, 11-13 d.
[8] abbreviates: patient 8004, 0.3 ug/kg/day i.v. drip 10 hours a day for 10 days, 30 d.
Setting [9] is: patient 8004, 0.3 ug/kg/day i.v. drip 10 hours a day for 10 days, screening period (before treatment).

As to `C[C@H](CS)C(=O)N1CCC[C@H]1C(=O)O` [captopril, reference compound], in test [1], the MAP amounted to 139.9 ± 24.8 and the “−dp/dt” value was −5441.2 ± 1007.3. This molecule had a blood pressure in test [1] (hypertensive rats, vs 216.5±23.2 and 228.0±26.0 in the other groups (p=0.029, p=0.017)) of 174.5±33.0.

B1: NRG: Recombinant human neuregulin, Neucardin™, 61 amino acids, produced by Shanghai Zensun Sci & Tech Co., Ltd. (protein)
chain: SHLVKCAEKEKTFCVNGGECFMVKDLSNPSRYLCKCPNEFTGDRCQNYVMASFYKAEELYQ
modifications: homo sapiens
With B1, the DT in test [2] (setting [4]) is on record as 203.7 ms; in test [2] (setting [5]), 179.5 ms; in test [2] (setting [6]), 229.08 ms; in test [2] (setting [7]), 256.15 ms; in test [2] (setting [8]) it was 255.14 ms; in test [2] (setting [9]), 262.28 ms. The IVRT came to 340.1 ms in test [2] (setting [4]); 345 ms in test [2] (setting [5]); 374.31 ms in test [2] (setting [6]); 609.28 ms in test [2] (setting [7]); 499.08 ms in test [2] (setting [8]); 621.07 ms in test [2] (setting [9]). The “IVRT and DT values, change over the trial” value in test [2] (patients administered with NRG 0.3 ug/kg/day, versus placebo patients whose values gradually increased) is recorded as “significantly decreased”. Moreover, in test [3], the “left ventricular end diastolic and end systolic volume” value is “prevent further left ventricular end diastolic and end systolic volume enlargement”. Also, in test [1], the MAP is recorded as 182.5 ± 18.8. Besides, the “−dp/dt” value in test [1] was −7467.6±715.8.
